The record followed here is patent US12559863B2, “Macrocyclic modulators of disease associated protein misfolding and aggregation” (RESQ BIOTECH, priority 2017, dated 2026).

This assay addresses T1, Aβ42-GFP (Homo sapiens, UniProt P05067).
T1 construct: a chimeric fusion of the human Aβ(1-42) peptide (Aβ42) with GFP; expressed in transfected cells; host or cells: E. coli BL21(DE3)
Description: High-throughput sequencing of pSICLOPPS vectors isolated after bacterial sorting for enhanced Aβ42-GFP fluorescence. To be noted: for Reads/Total TXXXR reads (%) / Reads/Total pentapeptide reads (%) / Reads/Total peptide reads (%): after the second round of bacterial sorting; for Reads/Total TXXXR reads (%): relative to total TXXXR reads; for Reads/Total pentapeptide reads (%): relative to total pentapeptide reads; for Reads/Total peptide reads (%): relative to total peptide reads; for Number of reads: high-throughput sequencing of isolated pSICLOPPS-NuX1X2X3-X5 vectors after the second round of bacterial sorting for enhanced Aβ42-GFP fluorescence, selected cyclo-TXXXR pentapeptides. The text has this: On the other hand, very few bioactive sequences resembling AβC5-34 should exist. […] The peptide-encoding vectors contained in these clones were isolated and the peptide-encoding region of approximately 5.6 million of these plasmids was sequenced using an Ion Torrent high-throughput sequencing platform. […] First, pentapeptides were the dominant peptide species within the sorted pool (FIG. 12D), in agreement with previous observations (FIG. 8G). Second, the most prevalent motif among the selected pentapeptide sequences were TXXXR pentapeptides (˜47% of the selected pentapeptide-encoding pSICLOPPS plasmids; ˜42% of the unique selected pentapeptide sequences) (Table 1), in accordance with previous observations (FIG. 8G). […] At position 2, Thr, Ala, and Val were preferred, while aromatic residues (Phe, Trp, Tyr) were completely excluded from the selected TXXXR peptide pool, in full agreement with our site-directed mutagenesis studies. At the highly variable position 3, the complete absence of the negatively charged amino acids Glu and Asp among the selected sequences was notable (FIG. 12E). […] It is noteworthy, that Lys and Gln residues were practically absent from all positions, while the β sheet-breaking amino acid Pro that is typically included in designed peptide-based inhibitors of amyloid aggregation appeared with strikingly low frequencies (FIG. 12E).
Electrocompetent E. coli BL21(DE3) cells (Novagen, USA) carrying either the expression vector pETSOD1(A4V)-GFP, which produces SOD1(A4V)-GFP under control of the strong bacteriophage T7 promoter, or pETAβ42-GFP, which produces Aβ42-GFP under control of the T7 promoter, were co-transformed with the combined pSICLOPPS-NuX1X2X3-X5 vector library. Approximately 10^8 transformants carrying both the vector library and either pETSOD1(A4V)-GFP or pETAβ42-GFP vectors were harvested, pooled together, and grown in Luria-Bertani (LB) liquid medium containing either 0.005% (pETSOD1(A4F)-GFP) or 0.002% (pETAβ42-GFP) L-arabinose—the inducer of cyclic peptide production—at 37° C. with shaking. When the optical density at 600 nm (OD600) of the bacterial culture was about 0.5, 0.01 (pETSOD1(A4F)-GFP) or 0.1 (pETAβ42-GFP) mM isopropyl-β-D-thiogalactoside (IPTG) was added to the medium to induce overexpression of the reporter. […] The isolated cells were re-grown and screened for additional rounds in an identical manner until the desired enrichment in high-fluorescence clones was achieved.
For the characterization of the initial libraries, a combined pSICLOPPS-NuX1X2X3-X5 vector library was prepared containing approximately equal amounts of each one of the tetra-, penta- and hexapeptide sub-libraries. These samples were digested with NcoI and BsrGI and the resulting ˜250 bp product that contained the variable peptide-encoding region was isolated. High-throughput sequencing analysis was performed using an Ion Torrent high-throughput sequencing platform. From the obtained data, all the sequences with mismatches outside of the variable peptide-encoding region were removed, and only the 12-, 15- or 18-bp-long peptide-encoding sequences were subjected to further analysis. The libraries of the selected cyclic peptides that enhance either SOD1(A4V)-GFP or Aβ42-GFP fluorescence were sequenced in a similar manner, with the only exception being that all sequences including stop codons were discarded from subsequent analysis.

In the case of AβC5-2 (TTYAR; cyclic), the “Reads/Total TXXXR reads (%)” value is listed as 16.023%, the “Reads/Total pentapeptide reads (%)” value was found to be 7.506%, the “Reads/Total peptide reads (%)” value stood at 6.727% and the Number of reads was 304,753.
On the same counts, the results for AβC5-3 (TTVDR; cyclic) are 11.276%, 5.282%, 4.734% and 214,461.
AβC5-5 (TTTWR; cyclic pentapeptide): the “Reads/Total TXXXR reads (%)” value amounted to 9.228%, the “Reads/Total pentapeptide reads (%)” value is 4.323%, the “Reads/Total peptide reads (%)” value was determined as 3.874% and the Number of reads was 175,510.
In the case of AβC5-7 (TTLHR; cyclic pentapeptide), the “Reads/Total TXXXR reads (%)” value stood at 7.046%, the “Reads/Total pentapeptide reads (%)” value is 3.301%, the “Reads/Total peptide reads (%)” value was found to be 2.958% and the Number of reads was 134,018.
For AβC5-12 (TTWAR; cyclic) the same measures were 3.466%, 1.624%, 1.455% and 65,929.
Turning to AβC5-13 (TALDR; cyclic), the “Reads/Total TXXXR reads (%)” value came out at 3.301%, the “Reads/Total pentapeptide reads (%)” value was 1.547%, the “Reads/Total peptide reads (%)” value was 1.386% and the Number of reads is listed as 62,792.
With AβC5-15 (TANVR; cyclic), the “Reads/Total TXXXR reads (%)” value is 2.516%, the “Reads/Total pentapeptide reads (%)” value is on record as 1.179%, the “Reads/Total peptide reads (%)” value is reported as 1.056% and the Number of reads is 47,855.
Regarding AβC5-17 (TTTAR; cyclic), the “Reads/Total TXXXR reads (%)” value is recorded as 2.110%, the “Reads/Total pentapeptide reads (%)” value was found to be 0.989%, the “Reads/Total peptide reads (%)” value was 0.886% and the Number of reads is reported as 40,135.
For AβC5-18 (TTIAR; cyclic) the same measures were 1.953%, 0.915%, 0.820% and 37,150.
Take AβC5-20 (TTISR; cyclic): the “Reads/Total TXXXR reads (%)” value stood at 1.948%, the “Reads/Total pentapeptide reads (%)” value was determined as 0.912%, the “Reads/Total peptide reads (%)” value was determined as 0.818% and the Number of reads is listed as 37,044.
On the same counts, the results for AβC5-21 (TTWCR; cyclic) are 1.908%, 0.894%, 0.801% and 36,295.
As to AβC5-22 (TVLWR; cyclic), the “Reads/Total TXXXR reads (%)” value was determined as 1.883%, the “Reads/Total pentapeptide reads (%)” value worked out at 0.882%, the “Reads/Total peptide reads (%)” value is given as 0.791% and the Number of reads is given as 35,820.
For AβC5-26 (TAWCR; cyclic) the same measures were 1.493%, 0.699%, 0.627% and 28,391.
For AβC5-27 (TTSAR; cyclic) the same measures were 1.482%, 0.694%, 0.622% and 28,188.
In the case of AβC5-29 (TTLER; cyclic), the “Reads/Total TXXXR reads (%)” value turned out to be 1.447%, the “Reads/Total pentapeptide reads (%)” value was 0.678%, the “Reads/Total peptide reads (%)” value is given as 0.607% and the Number of reads is on record as 27,514.
For AβC5-30 (TSTAR; cyclic), the “Reads/Total TXXXR reads (%)” value stood at 1.444%, the “Reads/Total pentapeptide reads (%)” value was determined as 0.676%, the “Reads/Total peptide reads (%)” value is recorded as 0.606% and the Number of reads was 27,456.
For AβC5-35 (TVRDR; head-to-tail cyclic), the “Reads/Total TXXXR reads (%)” value was found to be 1.337%, the “Reads/Total pentapeptide reads (%)” value came out at 0.626%, the “Reads/Total peptide reads (%)” value is on record as 0.561% and the Number of reads is recorded as 25,428.
For AβC5-41 (TGWAR; head-to-tail cyclic) the same measures were 1.145%, 0.537%, 0.481% and 21,784.
On the same counts, the results for AβC5-44 (TAWAR; cyclic pentapeptide) are 1.094%, 0.512%, 0.459% and 20,807.
Take AβC5-45 (TTWVR; cyclic pentapeptide): the “Reads/Total TXXXR reads (%)” value was 1.094%, the “Reads/Total pentapeptide reads (%)” value amounted to 0.512%, the “Reads/Total peptide reads (%)” value was 0.459% and the Number of reads was 20,798.
As for AβC5-46 (TLLWR; cyclic pentapeptide), the “Reads/Total TXXXR reads (%)” value was 1.049%, the “Reads/Total pentapeptide reads (%)” value is on record as 0.492%, the “Reads/Total peptide reads (%)” value is given as 0.440% and the Number of reads is recorded as 19,957.
For AβC5-47 (TTIDR; cyclic pentapeptide) the same measures were 1.038%, 0.486%, 0.436% and 19,735.
As for AβC5-50 (TALAR; cyclic pentapeptide), the “Reads/Total TXXXR reads (%)” value is listed as 1.022%, the “Reads/Total pentapeptide reads (%)” value is given as 0.479%, the “Reads/Total peptide reads (%)” value was 0.429% and the Number of reads is on record as 19,433.
AβC5-51 (TSVDR; cyclic pentapeptide): the “Reads/Total TXXXR reads (%)” value is 1.012%, the “Reads/Total pentapeptide reads (%)” value is 0.474%, the “Reads/Total peptide reads (%)” value turned out to be 0.425% and the Number of reads is given as 19,249.
As for AβC5-53 (TTVWR; cyclic pentapeptide), the “Reads/Total TXXXR reads (%)” value came out at 0.982%, the “Reads/Total pentapeptide reads (%)” value was determined as 0.460%, the “Reads/Total peptide reads (%)” value amounted to 0.412% and the Number of reads is 18,669.
On the same counts, the results for AβC5-66 (TTHWR; cyclic pentapeptide) are 0.752%, 0.352%, 0.316% and 14,304.
Take AβC5-67 (TARDR; cyclic pentapeptide): the “Reads/Total TXXXR reads (%)” value came out at 0.747%, the “Reads/Total pentapeptide reads (%)” value was found to be 0.350%, the “Reads/Total peptide reads (%)” value was 0.314% and the Number of reads is recorded as 14,213.
On to AβC5-73 (TTRDR; cyclic pentapeptide), for which the “Reads/Total TXXXR reads (%)” value came out at 0.678%, the “Reads/Total pentapeptide reads (%)” value came out at 0.318%, the “Reads/Total peptide reads (%)” value worked out at 0.285% and the Number of reads is on record as 12,894.
For AβC5-80 (TSVHR; cyclic) the same measures were 0.535%, 0.251%, 0.225% and 10,181.
